For one molecule, CAT activity of a 3X NF-AT-CAT reporter in HepG2 cells, relative to NF-ATp alone, CAT activity of a 3X NF-AT-CAT reporter in HepG2 cells, relative to vector alone and transactivation of a 3X NF-AT-CAT reporter in HepG2 cells results are on record in patent US20040024185A1.

What all share (assay): cell-based or functional assay
Test [1] concerns the target T1, NF-ATp expressed from an NF-ATp expression plasmid in HepG2 cells.
T1 sequence (Q13469 1-925, species assumed, looked up): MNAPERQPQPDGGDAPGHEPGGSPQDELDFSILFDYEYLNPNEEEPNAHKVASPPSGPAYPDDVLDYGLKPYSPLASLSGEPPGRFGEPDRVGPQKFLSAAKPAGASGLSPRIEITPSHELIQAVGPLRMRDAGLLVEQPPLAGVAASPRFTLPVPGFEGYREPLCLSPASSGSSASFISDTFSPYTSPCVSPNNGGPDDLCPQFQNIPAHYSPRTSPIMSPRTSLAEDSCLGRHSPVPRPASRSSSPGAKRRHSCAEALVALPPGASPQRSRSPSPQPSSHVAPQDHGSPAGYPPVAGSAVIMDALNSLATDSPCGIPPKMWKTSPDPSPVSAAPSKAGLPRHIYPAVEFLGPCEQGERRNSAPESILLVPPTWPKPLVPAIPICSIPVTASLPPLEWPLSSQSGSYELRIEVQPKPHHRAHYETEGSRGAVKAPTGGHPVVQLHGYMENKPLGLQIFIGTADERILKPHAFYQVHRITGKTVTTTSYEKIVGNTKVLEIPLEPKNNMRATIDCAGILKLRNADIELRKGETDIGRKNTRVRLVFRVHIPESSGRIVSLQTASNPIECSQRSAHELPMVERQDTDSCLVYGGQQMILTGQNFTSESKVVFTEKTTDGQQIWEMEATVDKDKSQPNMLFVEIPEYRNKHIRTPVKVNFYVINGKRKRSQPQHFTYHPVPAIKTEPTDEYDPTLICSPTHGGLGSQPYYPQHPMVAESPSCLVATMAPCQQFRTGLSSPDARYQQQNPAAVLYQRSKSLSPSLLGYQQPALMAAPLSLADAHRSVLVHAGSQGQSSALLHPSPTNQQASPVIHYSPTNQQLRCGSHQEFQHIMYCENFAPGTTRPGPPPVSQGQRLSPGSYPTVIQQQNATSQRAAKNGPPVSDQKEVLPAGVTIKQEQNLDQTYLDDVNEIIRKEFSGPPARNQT

Test [2] has as its target T2, NF-ATc expressed from an expression construct in HepG2 cells.
T2 sequence (O95644 1-943, species assumed, looked up): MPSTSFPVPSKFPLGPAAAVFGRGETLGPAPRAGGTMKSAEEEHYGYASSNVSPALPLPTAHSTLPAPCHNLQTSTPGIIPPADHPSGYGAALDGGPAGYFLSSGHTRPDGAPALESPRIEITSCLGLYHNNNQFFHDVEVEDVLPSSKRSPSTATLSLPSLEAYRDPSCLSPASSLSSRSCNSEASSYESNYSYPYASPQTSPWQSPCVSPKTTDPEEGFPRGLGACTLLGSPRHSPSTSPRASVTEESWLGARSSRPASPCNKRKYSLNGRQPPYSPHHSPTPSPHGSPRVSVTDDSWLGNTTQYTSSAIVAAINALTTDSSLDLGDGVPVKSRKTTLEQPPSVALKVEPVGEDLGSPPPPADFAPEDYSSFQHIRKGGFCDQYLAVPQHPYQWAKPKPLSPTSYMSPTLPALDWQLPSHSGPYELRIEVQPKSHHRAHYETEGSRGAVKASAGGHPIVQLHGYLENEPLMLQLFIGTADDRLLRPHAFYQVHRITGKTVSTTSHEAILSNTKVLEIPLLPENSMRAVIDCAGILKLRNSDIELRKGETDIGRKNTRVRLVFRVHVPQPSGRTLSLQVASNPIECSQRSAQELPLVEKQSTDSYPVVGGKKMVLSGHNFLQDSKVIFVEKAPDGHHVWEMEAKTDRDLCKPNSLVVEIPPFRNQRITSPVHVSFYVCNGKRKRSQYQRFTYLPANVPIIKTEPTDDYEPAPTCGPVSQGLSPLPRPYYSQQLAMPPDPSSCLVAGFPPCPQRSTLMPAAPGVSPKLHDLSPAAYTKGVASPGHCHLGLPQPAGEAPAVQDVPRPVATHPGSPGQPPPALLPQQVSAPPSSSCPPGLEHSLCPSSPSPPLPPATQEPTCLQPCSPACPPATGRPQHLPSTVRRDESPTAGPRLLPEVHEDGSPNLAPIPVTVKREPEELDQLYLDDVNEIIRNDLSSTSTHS

In test [3] the target is T3, NF-AT4 expressed from an expression construct.
T3 sequence (Q12968 2-1075, species assumed, looked up): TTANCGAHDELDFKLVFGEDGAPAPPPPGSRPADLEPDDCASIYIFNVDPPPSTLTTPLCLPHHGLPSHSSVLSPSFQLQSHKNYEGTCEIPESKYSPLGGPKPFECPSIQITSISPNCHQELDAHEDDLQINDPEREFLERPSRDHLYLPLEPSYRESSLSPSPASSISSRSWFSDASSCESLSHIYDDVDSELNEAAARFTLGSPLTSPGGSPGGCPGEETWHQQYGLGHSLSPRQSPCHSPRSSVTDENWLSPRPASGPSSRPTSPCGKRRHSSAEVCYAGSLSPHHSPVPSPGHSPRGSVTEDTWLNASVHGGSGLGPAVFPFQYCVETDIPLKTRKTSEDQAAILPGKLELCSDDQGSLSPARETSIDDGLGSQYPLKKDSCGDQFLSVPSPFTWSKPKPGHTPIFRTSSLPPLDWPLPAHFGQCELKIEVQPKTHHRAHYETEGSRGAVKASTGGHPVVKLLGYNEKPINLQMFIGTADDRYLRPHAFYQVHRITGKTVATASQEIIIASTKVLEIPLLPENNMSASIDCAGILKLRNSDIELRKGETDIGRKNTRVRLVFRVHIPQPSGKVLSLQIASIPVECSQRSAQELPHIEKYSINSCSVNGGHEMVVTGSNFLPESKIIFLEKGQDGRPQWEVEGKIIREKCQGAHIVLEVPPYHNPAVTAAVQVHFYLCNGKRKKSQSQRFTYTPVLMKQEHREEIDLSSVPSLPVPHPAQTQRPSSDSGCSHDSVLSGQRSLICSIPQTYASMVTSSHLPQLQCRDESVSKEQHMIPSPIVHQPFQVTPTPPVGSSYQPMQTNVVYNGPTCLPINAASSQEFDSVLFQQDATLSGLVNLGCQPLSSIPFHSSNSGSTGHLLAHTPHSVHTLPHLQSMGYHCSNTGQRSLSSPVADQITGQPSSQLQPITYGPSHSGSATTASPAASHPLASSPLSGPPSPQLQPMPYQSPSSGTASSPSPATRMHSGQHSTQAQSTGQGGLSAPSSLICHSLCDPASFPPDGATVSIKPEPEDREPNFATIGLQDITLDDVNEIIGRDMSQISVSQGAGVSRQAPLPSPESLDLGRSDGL

For test [4], the target named is T4, NF-AT3 expressed from an expression construct in HepG2 cells.
T4 sequence (Q14934 1-902, species assumed, looked up): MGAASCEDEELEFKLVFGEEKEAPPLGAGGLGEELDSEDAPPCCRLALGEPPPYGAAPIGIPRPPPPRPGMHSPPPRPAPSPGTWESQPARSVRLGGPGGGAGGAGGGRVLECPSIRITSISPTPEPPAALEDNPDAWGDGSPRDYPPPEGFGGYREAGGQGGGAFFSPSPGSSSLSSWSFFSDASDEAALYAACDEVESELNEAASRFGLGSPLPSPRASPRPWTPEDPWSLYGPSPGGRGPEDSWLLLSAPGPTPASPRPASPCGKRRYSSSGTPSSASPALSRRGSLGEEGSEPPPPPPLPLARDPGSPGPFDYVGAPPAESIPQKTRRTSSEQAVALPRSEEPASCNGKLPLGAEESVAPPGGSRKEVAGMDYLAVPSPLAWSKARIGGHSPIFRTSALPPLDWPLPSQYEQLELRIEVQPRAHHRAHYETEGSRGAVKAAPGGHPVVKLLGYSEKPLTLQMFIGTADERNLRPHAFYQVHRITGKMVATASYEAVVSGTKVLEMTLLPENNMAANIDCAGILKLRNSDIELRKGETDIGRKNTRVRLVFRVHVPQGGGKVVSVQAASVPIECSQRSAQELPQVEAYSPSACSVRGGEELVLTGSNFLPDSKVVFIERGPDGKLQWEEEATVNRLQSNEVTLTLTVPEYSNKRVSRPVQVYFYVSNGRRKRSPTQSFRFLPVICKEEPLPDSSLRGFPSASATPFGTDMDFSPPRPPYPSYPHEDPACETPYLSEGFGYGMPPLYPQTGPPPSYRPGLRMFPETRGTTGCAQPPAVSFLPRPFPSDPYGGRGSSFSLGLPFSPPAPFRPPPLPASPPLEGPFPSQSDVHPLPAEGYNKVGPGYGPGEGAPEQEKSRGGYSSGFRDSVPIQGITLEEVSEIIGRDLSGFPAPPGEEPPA

B1: NIP45 expressed from a NIP45 expression plasmid (protein)
chain: MAEPLRGRGPRSRGGRGARRARGARGRCPRARQSPARLIPDTVLVDLVSDSDEEVLEVADPVEVPVARLPAPAKPEQDSDSDSEGAAEGPAGAPRTLVRRRRRRLLDPGEAPVVPVYSGKVQSSLNLIPDNSSLLKLCPSEPEDEADLTNSGSSPSEDDALPSGSPWRKKLRKKCEKEEKKMEEFPDQDISPLPQPSSRNKSRKHTEALQKLREVNKRLQDLRSCLSPKQHQSPALQSTDDEVVLVEGPVLPQSSRLFTLKIRCRADLVRLPVRMSEPLQNVVDHMANHLGVSPNRILLLFGESELSPTATPSTLKLGVADIIDCVVLASSSEATETSQELRLRVQGKEKHQMLEISLSPDSPLKVLMSHYEEAMGLSGHKLSFFFDGTKLSGKELPADLGLESGDLIEVWG
B1 showed a CAT activity of a 3X NF-AT-CAT reporter in HepG2 cells, relative to NF-ATp alone in test [1] of 4 to 5 fold. Further, the CAT activity of a 3X NF-AT-CAT reporter in HepG2 cells, relative to vector alone in test [1] lay in the range of 25 to 30 fold. Also, the values for the transactivation of a 3X NF-AT-CAT reporter in HepG2 cells in test [2], in test [3] and in test [4] were 4 fold, 2 fold and 3 fold, respectively.
